In patent publication US20040229242, “Methods of capturing, detecting and quantifying RNA:DNA hybrids and a modified RNase H useful therein” (published 2004):

Tests used:
[1] = target: T1, E. coli RNase H1 D134A (nuclease-deficient parent) (Escherichia coli) (UniProt P0A7Y4); test: competition; details: 25 C
T1 sequence: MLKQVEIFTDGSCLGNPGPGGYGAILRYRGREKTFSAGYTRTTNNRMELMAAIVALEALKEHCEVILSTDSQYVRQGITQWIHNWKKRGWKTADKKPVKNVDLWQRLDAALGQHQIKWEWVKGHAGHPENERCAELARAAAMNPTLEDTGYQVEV

[2] = target: T2, RNase H1 D94G/D134A mutant (Escherichia coli, UniProt P0A7Y4 SEQ:1-155); test: competition; details: 25 C
T2 chain: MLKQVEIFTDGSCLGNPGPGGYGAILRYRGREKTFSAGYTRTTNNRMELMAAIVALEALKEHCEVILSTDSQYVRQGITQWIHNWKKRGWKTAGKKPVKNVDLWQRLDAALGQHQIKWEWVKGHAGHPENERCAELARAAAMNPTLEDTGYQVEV

[3] = target: T2, RNase H1 D94G/D134A mutant; test: filter; 50 mM NaCl, 1 mM EDTA, HEPES pH 7.0, 25 C
[4] = target: T3, E. coli RNase H1 D134A (nuclease-deficient parent) (Escherichia coli, UniProt P0A7Y4 SEQ:1-155); test: filter; 50 mM NaCl, 1 mM EDTA, HEPES pH 7.0, 25 C; details: label: 32P
T3 chain: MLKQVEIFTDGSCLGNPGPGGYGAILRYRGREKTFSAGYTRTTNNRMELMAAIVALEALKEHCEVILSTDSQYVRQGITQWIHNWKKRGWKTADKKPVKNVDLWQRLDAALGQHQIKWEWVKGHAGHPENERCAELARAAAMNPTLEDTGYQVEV

[5] = target: T3, E. coli RNase H1 D134A …; test: FP filter; nitrocellulose filter binding; 50 mM NaCl, 1 mM EDTA, 20 mM HEPES pH 7.0, 25 C; details: label: 32P end label on DNA strand
Procedure: In the experiment, serial dilutions of the indicated RNase H proteins were individually incubated in 1×FB Buffer [100 μg/ml BSA; 50 mM NaCl; 1 mM EDTA; 20 mM HEPES, pH 7.0] with a radiolabeled RNA:DNA hybrid of the following sequence:
After 30 minutes incubation at 25° C., the 50 μl reactions were filtered quickly through buffer-equilibrated nitrocellulose filters and washed twice with 500 μl Wash Buffer [10% Glycerol, 50 mM NaCl; 1 mM EDTA; 20 mM HEPES, pH 7.0]. […] The amount of RNA:DNA hybrid retained by each filter was directly quantitated from the damp filters by Cerenkov counting. Each protein was tested in triplicate and the results averaged. Control filters to determine total input radioactivity were used to calculate the percent of total input hybrid bound. SDS-PAGE and densitometry re-confirmed protein concentrations.

[6] = competition vs RNA:DNA#1, filter binding
[7] = competition vs RNA:DNA#2, filter binding
[8] = competition vs RNA:DNA#3, filter binding

heat-denatured sheared salmon sperm ssDNA
IC50 [1, 6]: 1700 nM
IC50 [1, 7]: 5500 nM
IC50 [1, 8]: 2900 nM
IC50 [2, 6]: 9000 nM
IC50 [2, 7]: 15000 nM
IC50 [2, 8]: 10000 nM

B1: RNA:DNA#2 (DNA:RNA)
RNA: GGCGAACAGGACUGCGUAUGAUAGG
DNA: CCTATCATACGCAGTCCTGTTCGCC
Kd ([3]; label: 32P): 6 nM
Kd [4]: 8 nM

B2: RNA:DNA#1 (DNA:RNA)
RNA: GGACCGGAAAGGUACGAGCAUGUGA
DNA: TCACATGCTCGTACCTTTCCGGTCC
Kd [5]: 10 nM
Kd ([3]; label: 32P end label on DNA strand): 5.1 nM

B3: RNA:DNA#3 (DNA:RNA)
RNA: AGUUCGACGAGCAUGGAGAGGUCAG
DNA: CTGACCTCTCCATGCTCGTCGAACT
Kd ([3]; label: 32P): 5.5 nM
Kd [4]: 8 nM
